Results as given in the supplement of paper PMC9170038.

Tested on: MS2 coat protein
Experiment: apparent KD of MS2 coat protein; higher = weaker reporter binding
Conditions: Eterna round: R107
Outline: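 Illumina sequencing clusters were used for on-chip transcription of designed RNA switches. Titration with SNAP-549-labelled MS2 coat protein followed, in twofold steps from 0.7 or 1.5 nM to 3 µM in 100 mM Tris-HCl pH 7.5, 80 mM KCl, 4 mM MgCl2, without or with constant ligand. Apparent KD is each design's median of fits to normalised cluster binding curves.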

[1] = input ligand: theophylline 20 uM
[2] = input ligand: tryptophan 2.4 mM
[3] = input ligand: theophylline 2 mM

Sequence | apparent KD of MS2 coat protein (input ligand: arginine 13.2 mM) | apparent KD of MS2 coat protein [1] | apparent KD of MS2 coat protein [2] | apparent KD of MS2 coat protein [3] | apparent KD of MS2 coat protein (input ligand: none)
AUUUUUCUAUCAGAUACCAGACAAUUUUAGACAUGAGGAUCACCCAUGUAUAGGGUGUUCGUCCCUUGGCAGCUGUUAAGUUUAA [JR_SSTheophyB_Sub004] | 62 nM | 152 nM | 182 nM |  | 
AACAGACGAGACGAUACCAGUCUCUUAGCGCACAUGAGGAUCACCCAUGUUGGCAAGCUCGACCCUUGGCAGCGUACCUUUGAUC [theeternabot_sameState_MS2_Theo_B_6] | 23.8 nM | 34.3 nM | 24.3 nM |  | 
UAUAAACAGCCUGGUUACUCGUCGCGCUUGCGAGGACCGGUACGGCCGCCACUCGACCCAUCACAUGAGGAUCACCCAUGUCCCA [theeternabot_exclusion_MS2_Trp_A_25] | 29.4 nM | 45 nM |  | 38.6 nM | 
GUAUCUAUGUGAAAUAGAUAUGUAACUGAAGGAGCGUCAUUAAGGACAGGUAGGUCGCGGAGCACAUGAGGAUCACCCAUGUCGG [#09 Same State - Arginine A] | 24.7 nM | 31.1 nM | 34.3 nM | 35.5 nM | 42.1 nM
GGAUAGGACACGGCCGCCACUGCCUAGGAUACUAGAAACAUUUCCUCACAUGAGGAUCACCCAUGUAGGACCGGGUGUCCUAUCG | 74.9 nM | 161 nM |  | 121 nM | 
AAUAACGUGAGGAUCACCCACGUAAAAGAUACCAGAGUGAUGAUCCUCCCUUGGCAGCUUAACGCUGAUUGAUUACAAUCAGCGA | 49.5 nM | 123 nM | 49.6 nM | 213 nM | 58.7 nM
UCGGCAGUGAACGAUACCAGCGUCACGUGGCCGGUGGUCACAUGAGGAUCACCCAUGUAACGCCCUUGGCAGCGUGCGCGUACCG [Zaancebi] | 15.1 nM | 63.5 nM | 27.3 nM |  | 
CCAUAGGGUAAAUACGUAAUCAUAUCUGAAGGAGCGUGGAUAUACACAGGUAGGUCGCAGAAUCACAUGAGGAUCACCCAUGUCU [Same State Arginine A GF12] | 28.8 nM | 39.8 nM | 42.7 nM | 47.5 nM | 41.2 nM
AAUCGCCUGGGUCGCAUCCUUGCUCCGGAUACCAGUCAAUAGUUGGACCCUUGGCAGCCGUAGACAUGAGGAUCACCCAUGUAUA [theeternabot_exclusion_MS2_Theo_A_42] | 30.2 nM | 85.5 nM | 55.9 nM |  | 
AGCACAUGAGGAUCACCCAUGUGUCGGUACCGAGGACCGGUACGGCCGCCACUCGCAGGACAUGAGGAUCACCCAUGUGCCGCCG [SSTA DOUBLE!!! :-D #8] | 14 nM | 36.1 nM |  | 35.9 nM | 
ACAUGAGGAUCACCCAUGUAACCUAGGGAAGGAGCGGUGUAAGAGCCAGGUAGGUCGCCCACAUGUGGAUCACCCAUGGUGAGGG [#24 Same State - Arginine A] | 22.7 nM | 44.4 nM | 26.6 nM | 39.2 nM | 29 nM
GGCUAGUGCAUCGAUACCAGCUACAUGAGGAUCACCCAUGUAGGAAGGGUGGCACUCGAUAGCCCUUGGCAGCGAACACCUCCGG [Cebebion] | 53 nM | 31.2 nM | 16.3 nM | 28.1 nM | 18.9 nM
UCACAUGAGGAUCACCCAUGUACAGGCGAUACCAGCCGUACAUUGGGCCCUUGGCAGCGCACCGAGACCUUUAUAAGCACCUCGG [Zaoranorre] | 67 nM | 207 nM | 15.7 nM |  | 
GGGCGCGUGGACCGGCGUGCUCCGCUCCGUCGAGGACCGGUACGGCCGCCACUCGACAUGAGGAUCACCCAUGUGUGAGCUCGCG [#1 Exclusion - Tryptophan A Attempt #16 (HarryS)] | 22.5 nM | 63.6 nM |  | 80 nM | 
UGGGAAGGAGGAAGGAGCGCCAUAAGGGUGACUGUCUGGGUACAUGAGGAUCACCCAUGUAGGCAGGUAGGUCGCCUCGCUCUCA [Bibienoned] | 10.3 nM | 11.9 nM | 10.4 nM | 10.4 nM | 10.1 nM
GGCUAUACUACGGCCGCCACUGAACAUGAGGAUCACCCAUGUAAUGUUCAGAUUUUUUUUUUUUACAGGACCGGGUAGAAUUGCC [Tryptophan B 3] | 82.6 nM | 220 nM |  | 299 nM | 
ACGCUGAUUGAUUACAAUCAGCGAAAAGAUACCAGUGGGUAAUCCCACCCUUGGCAGCUUAAACAAGAGGAUCACCCUUGUGGUA [TheoAS 16 #MS2Right #BothOrNeither #AlternativeMS2] | 102 nM | 370 nM | 521 nM | 238 nM | 201 nM
AACGUAUACAGAAGGAGCGUGAUUUAUAUUUCUUUAACAUAUACAUGAGGAUCACCCAUGUCACAGGUAGGUCGCUGUAUUCGUA [JR_ExcArginiB_Sub023] | 33.6 nM | 40.1 nM | 30.8 nM | 32.6 nM | 31.1 nM

Sequence | apparent KD of MS2 coat protein (input ligand: arginine 13.2 mM) | apparent KD of MS2 coat protein [1] | apparent KD of MS2 coat protein [2] | apparent KD of MS2 coat protein [3] | apparent KD of MS2 coat protein (input ligand: none)
GGGCCCGGGCGCGAGCCCGGGCCCAUUGAUACCAGUGAUAUAUGACGCCCUUGGCAGCGAAUCCUAACAUGAGGAUCACCCAUGU [5.H] | 22.8 nM | 58.9 nM | 37.1 nM | 81.6 nM | 54.7 nM
AUCGUACCUGAGGAUACCAGCAUGUGAUCAUAACAUGAGGAUCACCCAUGUAAUCAGUGAUGCCCUUGGCAGCUUGGUCGAUACA [Same State - Theophylline B (Freestyle 9)] | 42.5 nM | 75 nM | 46.2 nM |  | 
GAUGAAGUAACUGAUACCAGUGUACUGACAUGAGGAUCACCCAUGUUGGGUUUUGUUGUACACCCUUGGCAGCAGAAUCUUUAUC [AstrosExyTheB#5] | 33.8 nM | 60.8 nM | 45.8 nM |  | 
UUCACAUGGUAUGAAUAUACAUACAAGAAACGAGGACCGGUACGGCCGCCACUCGUGCCGGAAACAUGAGGAUCACCCAUGUGUU [AK1.2 Exclusion TrypA mod IceBolt] | 21.5 nM | 41.2 nM |  | 41.2 nM | 
CAUCCUAGUACAUGAGGAUCACCCAUGUAUCGAGGACCGGUACGGCCGCCACUCGAAUGGCGGAUCGUUAAUCCUCUAGGAUGGA [Tryp A Ex 4a] | 11.7 nM | 14 nM |  | 11.5 nM | 
CCGGCGCGAUUAUGGGUUUGCUUUUACGAUACCAGCCGCGUUCCGGGCCCUUGGCAGCGUGUAACAUGAGGAUCACCCAUGUUCA [theeternabot_exclusion_MS2_Theo_A_37] | 9.81 nM | 20.7 nM | 10.1 nM |  | 
GGACUAACCAGAAGGAGCGACACGCAGAAACUGCAAAUUCCUCCGCACGAGGAUCACCCGUGUCAGGUAGGUCGCUGGUUAGUCG [ArgBX 28] | 22.9 nM | 33.2 nM | 22.4 nM | 23.5 nM | 19.4 nM
ACGAACUGUAGUGAUACCAGACACACAUGAGGAUCACCCAUGUUGUUAGCAUGGUGAAUAGUCCCUUGGCAGCACAGUUAGUUCG [#12 Exclusion-TheophyllineB] | 71.5 nM | 111 nM | 94.3 nM |  | 
UUAUGAUGUUCCGAUACCAGCCAUGUAGUUCUAACUUAACAUGAGGAUCACCCAUGUACCGGCCCUUGGCAGCGGAUGUGGAUUA [#22Same State - Theophylline B] | 27 nM | 29.3 nM | 23.7 nM | 14.8 nM | 23.4 nM
AUGUCUGAGUCGGCCGCCACUGGGUGUGGGUGAUGCCGGAUGUUGUACAUGAGGAUCACCCAUGUCAGGACCGGGAUUCCCACGA [Receve] | 6.2 nM | 12.7 nM | 10.2 nM | 8.73 nM | 10.4 nM
GGUUACUCUACGGCCGCCACUGAUAAAUAAUAAACCUGUACAUAAACAUGAGGAUCACCCAUGUACAGGACCGGGUAGUGUAACC [Tryptophan B 7] | 30.5 nM | 41.2 nM |  | 34.7 nM | 
UAUCCACAUGAGGAUCACCCAUGUUAGGAAGGAGCGGUGAAUGCACCAGGUAGGUCGCCUAGCUGAGGACUGUCGGUGGAUUCGU [Exclusion - Arginine A (Freestyle 19)] | 33 nM | 47 nM | 40.3 nM | 53 nM | 39.4 nM
GGGUACAUCGCGGCCGCCACUCAUGUAAAUUCAUGAGGAUCACCCAUGACGAUGGAGACAUCGGAGAGGACCGGGUGAUGUACCG | 26.5 nM | 23 nM | 16.8 nM | 20.8 nM | 16.8 nM
UUAUAAGUACCGGUCCUCAGAUCCUCAUGACGAGGACCGGUACGGCCGCCACUCGAAACAUGAGGAUCACCCAUGUAAUAAUAAC [Brourdmod04] | 23.3 nM | 92.1 nM |  | 37.7 nM | 
CUAAGAGCGGCGGCCGCCACUGGUAACCGAGAGGAGGAGCCUCUGACAUGAGGAUCACCCAUGUUCAGGACCGGGUCGUCUUAGA [#06 Same State - Tryptophan B] | 41.2 nM | 77.5 nM | 54.6 nM | 74.4 nM | 60.2 nM
UCGUUUGAGGCGGCCGCCACUGGUCUCAUGGUCAACAUGAGGAUCACCCAUGUAUCUUAGUUAAGCAGGACCGGGCCUCGAGCGA [#18 Exclusion Tryptophan B] | 38.9 nM | 105 nM | 32.3 nM | 95.6 nM | 72.7 nM
GUAGCGACGACGGCCGCCACUCACAGGUGAGGGUAGACCAACCUUCACAUGAGGAUCACCCAUGUGAGGACCGGGUUGUCGGUAC [#11 Exclusion Tryptophan B] | 50.9 nM | 95.5 nM | 146 nM | 111 nM | 134 nM
UGUAUGGACUGAAGGAGCGCCUCAAAAUAUCAUGAGGAUCACCCAUGGAAGGCGAAAGCCGGGCAGGUAGGUCGCAGUCCAUACU [ArgBX 3] | 20.2 nM | 19.1 nM | 13.4 nM | 15.6 nM | 15.6 nM
